Measurements taken from patent CN103044552A (INST PATHOGEN BIOLOGY CAMS, dated 2013).

Columns and labels:
[1] = biological target: T1, DEC-205分子 (human, on monocyte-derived human dendritic cells) (human, UniProt O60449 28-1722); assay: flow cytometry on human monocyte-derived DC, FITC secondary antibody
T1 construct: whole, on cells; The assay itself used whole human DC

[2] = biological target: DEC-205 (antigen of the SPR measurement, form not stated) (UniProt O60449); assay: SPR (CM5 chip coupled with anti-human secondary antibody; gradient 1000-62.5 nM)

T1 sequence (O60449 28-1722): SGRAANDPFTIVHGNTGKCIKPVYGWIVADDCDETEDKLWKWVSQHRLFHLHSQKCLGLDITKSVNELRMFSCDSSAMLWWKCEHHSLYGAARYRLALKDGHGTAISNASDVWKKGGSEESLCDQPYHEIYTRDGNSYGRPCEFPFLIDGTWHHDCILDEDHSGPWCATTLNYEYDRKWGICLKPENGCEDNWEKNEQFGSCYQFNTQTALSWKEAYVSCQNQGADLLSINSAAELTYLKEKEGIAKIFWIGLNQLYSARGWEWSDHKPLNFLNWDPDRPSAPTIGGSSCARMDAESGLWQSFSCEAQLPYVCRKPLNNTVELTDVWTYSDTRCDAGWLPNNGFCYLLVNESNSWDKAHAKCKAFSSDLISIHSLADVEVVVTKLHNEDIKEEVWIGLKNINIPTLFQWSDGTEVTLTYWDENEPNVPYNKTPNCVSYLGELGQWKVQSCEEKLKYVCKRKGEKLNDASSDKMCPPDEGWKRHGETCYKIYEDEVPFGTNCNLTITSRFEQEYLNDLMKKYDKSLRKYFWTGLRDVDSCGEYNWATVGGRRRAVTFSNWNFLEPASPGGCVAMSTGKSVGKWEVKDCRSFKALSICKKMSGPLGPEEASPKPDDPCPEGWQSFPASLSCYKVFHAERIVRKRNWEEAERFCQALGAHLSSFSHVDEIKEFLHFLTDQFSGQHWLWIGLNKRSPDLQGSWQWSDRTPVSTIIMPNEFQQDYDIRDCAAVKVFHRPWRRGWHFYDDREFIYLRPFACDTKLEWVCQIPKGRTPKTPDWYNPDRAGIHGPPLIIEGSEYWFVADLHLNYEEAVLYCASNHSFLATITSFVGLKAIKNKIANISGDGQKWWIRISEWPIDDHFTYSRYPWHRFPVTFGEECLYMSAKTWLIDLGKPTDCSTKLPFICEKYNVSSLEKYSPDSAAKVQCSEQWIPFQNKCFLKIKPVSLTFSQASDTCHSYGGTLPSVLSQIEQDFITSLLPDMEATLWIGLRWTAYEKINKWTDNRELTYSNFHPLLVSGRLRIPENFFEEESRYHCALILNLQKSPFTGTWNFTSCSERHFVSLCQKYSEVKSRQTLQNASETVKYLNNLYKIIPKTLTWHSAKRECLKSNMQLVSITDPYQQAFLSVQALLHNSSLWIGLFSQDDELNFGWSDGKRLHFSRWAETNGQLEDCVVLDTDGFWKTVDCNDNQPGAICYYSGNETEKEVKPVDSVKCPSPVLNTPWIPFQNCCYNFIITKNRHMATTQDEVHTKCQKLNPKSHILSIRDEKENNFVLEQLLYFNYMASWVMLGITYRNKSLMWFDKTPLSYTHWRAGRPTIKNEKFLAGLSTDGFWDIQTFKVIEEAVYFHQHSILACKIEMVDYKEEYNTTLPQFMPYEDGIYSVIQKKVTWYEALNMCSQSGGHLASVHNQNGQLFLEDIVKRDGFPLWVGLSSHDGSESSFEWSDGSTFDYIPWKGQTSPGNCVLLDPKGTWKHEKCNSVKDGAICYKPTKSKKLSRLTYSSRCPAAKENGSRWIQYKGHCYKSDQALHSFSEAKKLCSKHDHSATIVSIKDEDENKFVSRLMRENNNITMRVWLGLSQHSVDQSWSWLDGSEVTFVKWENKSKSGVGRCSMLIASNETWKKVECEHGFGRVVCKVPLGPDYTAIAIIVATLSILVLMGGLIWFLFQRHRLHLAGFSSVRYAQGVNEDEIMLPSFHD

- binding result [1]: binds
- Kd [2]: 16.7 nM
- koff [2]: 0.000137 s⁻¹
- kon [2]: 8220 M⁻¹ s⁻¹
B1: 人源化的抗树突状细胞表面DEC-205分子的单克隆抗体 (antibody, V domains shown)
VH: EVQLVESGGGLVQPGRSLRLSCAASGFTFSHYYMAWVRQAPGKGLEWVAYISTDGGTTYYRDSVKGRFTISRDNAKSTLYLQMNSLRAEDTAVYYCTTGQPGYNLDYFDYWGQGTLVTVSS
VL: DIQMTQSPSSLSASVGDRVTITCQASQDIGYWLAWYQLKPGKSPQLLIYGATSLADGVPSRFSGSGSGTDYTLTISSLQPEDIATYYCQQASSVPWTFGGGTKLEIK
notes: FITC-labelled in the internalisation assay
